Results taken from publication PMC5554461.

Target: soluble 2-domain CD4 (2dCD4)
Assay: BLI

“YU2(R456K).SOSIP.664 (from UniProt P35961 499-843) (complex)” was tested, and the fold reduction of the on-rate against YU2.SOSIP.664 was 2 fold.
